{"source": "paper PMC8484813", "about": "“Structure and substrate specificity determinants of NfnB, a dinitroaniline herbicide–catabolizing nitroreductase from Sphingopyxis sp. strain HMH” (The Journal of Biological Chemistry, 2021)", "molecules": {"B1": {"name": "NfnB (Sphingopyxis granuli; Y88A) (protein)", "chain": "MPATDTLSLSASEALARRRSVRAFTDRPVDRALLARIFEIAQRAPSGGNLQPWQATVVTGERWQAVQDAVAARIVMGREGFQPEYDIAPRGLTDPWDSRRFGVGEALYASLGIARDDKAGRIAQFQQNYRGFGAPVMLFLHCSRIMGPPQWADMGMWLQSVMLLLVEHGLASCPQECWAMYGATVRAELGLGDDQILFSGLAIGHADEEAPVNRWPVPRVGLDEVIDWQGFDA", "notes": "full-length gene in modified pET28b, N-terminal His6 tag with TEV site, E. coli BL21(DE3); tag kept for activity assays, tag-free for crystals"}, "B2": {"name": "NfnB (Sphingopyxis granuli; R100A) (protein)", "chain": "B1 chain with A88Y, R100A", "notes": "as for B1"}, "B3": {"name": "NfnB (Sphingopyxis granuli; Y88F) (protein)", "chain": "B1 chain with A88F", "notes": "as for B1"}, "B4": {"name": "NfnB (Sphingopyxis granuli; R100M) (protein)", "chain": "B1 chain with A88Y, R100M", "notes": "as for B1"}, "B5": {"name": "NfnB (Sphingopyxis granuli) (protein)", "chain": "B1 chain with A88Y"}}, "key": {"[1]": {"target": "NfnB from Sphingopyxis sp. strain HMH (wildtype) (Sphingopyxis sp. strain HMH)", "test": "SEC; Superdex 200 column, buffer A (50 mM Tris pH 8.0, 100 mM NaCl); elution peak compared with the monomeric molecular weight"}, "NfnB": {"target": "T1, NfnB (Sphingopyxis granuli, UniProt A0A411G9W7)", "T1 construct": "full-length gene in modified pET28b, N-terminal His6 tag with TEV site, E. coli BL21(DE3); tag kept for activity assays, tag-free for crystals", "T1 sequence (A0A411G9W7 1-233)": "B1 chain with A88Y", "test": "X-ray crystal structure, […] Å", "format": "binding", "details": "tag-free protein; FMN in pocket at dimer interface"}, "purified protein [2]": {"substrate": "CCC(C)Nc1c([N+](=O)[O-])cc(C(C)(C)C)cc1[N+](=O)[O-]", "test": "purified protein", "format": "biochemical, Sphingopyxis granuli", "details": "50 mM Tris pH 7.5, 30 °C"}, "purified protein [3]": {"substrate": "CCC(CC)Nc1c([N+](=O)[O-])cc(C)c(C)c1[N+](=O)[O-]", "test": "purified protein", "format": "biochemical, Sphingopyxis granuli", "details": "50 mM Tris pH 7.5, 30 °C"}, "purified protein [4]": {"substrate": "CCCN(CCC)c1c([N+](=O)[O-])cc(C(C)C)cc1[N+](=O)[O-]", "test": "purified protein", "details": "50 mM Tris pH 7.5, 30 °C"}, "purified protein [5]": {"substrate": "NC(=O)C1=CN([C@@H]2O[C@H](COP(=O)(O)OP(=O)(O)OC[C@H]3O[C@@H](n4cnc5c(N)ncnc54)[C@H](OP(=O)(O)O)[C@@H]3O)[C@@H](O)[C@H]2O)C=CC1", "test": "purified protein", "format": "biochemical, Sphingopyxis granuli", "details": "12.5 μM butralin, 50 mM Tris pH 7.5, 30 °C, electron donor"}, "purified protein [6]": {"substrate": "CCC(C)Nc1c([N+](=O)[O-])cc(C(C)(C)C)cc1[N+](=O)[O-]", "test": "purified protein", "details": "pH 7.5; 30.0 °C"}, "purified protein [7]": {"substrate": "CCC(CC)Nc1c([N+](=O)[O-])cc(C)c(C)c1[N+](=O)[O-]", "test": "purified protein", "details": "pH 7.5; 30.0 °C"}, "purified protein [8]": {"substrate": "NC(=O)C1=CN([C@@H]2O[C@H](COP(=O)(O)OP(=O)(O)OC[C@H]3O[C@@H](n4cnc5c(N)ncnc54)[C@H](OP(=O)(O)O)[C@@H]3O)[C@@H](O)[C@H]2O)C=CC1", "test": "purified protein", "details": "pH 7.5; 30.0 °C"}}, "note": "Changes are numbered by the printed parent chain. Names and notes keep the numbering of the source."}
{"molecule": "NfnB from Sphingopyxis sp. strain HMH (wildtype) (enzyme)", "values": [{"measurement": "stoichiometry N", "setting": "[1]", "value": 2}]}
{"molecule": "Cc1cc2nc3c(=O)[nH]c(=O)nc-3n(C[C@H](O)[C@H](O)[C@H](O)COP(=O)(O)O)c2cc1C", "note": "[FMN]", "values": [{"measurement": "X-ray crystal structure, 2.1 Å", "setting": "NfnB", "value": "We determined the crystal structure of NfnB in the presence of coenzyme FMN"}]}
{"molecule": "B1", "values": [{"measurement": "Km", "setting": "purified protein [2]; 200 μM NADPH", "value": "0.59 (0.077) μM"}, {"measurement": "kcat", "setting": "purified protein [2]; 200 μM NADPH", "value": 2.1, "unit": "s⁻¹"}, {"measurement": "Km", "setting": "purified protein [3]; 200 μM NADPH", "value": "2.9 (0.18) μM"}, {"measurement": "kcat", "setting": "purified protein [3]; 200 μM NADPH", "value": 2.5, "unit": "s⁻¹"}, {"measurement": "Km", "setting": "purified protein [4]; 200 μM NADPH", "value": "0.83 (0.16) μM"}, {"measurement": "kcat", "setting": "purified protein [4]; 200 μM NADPH", "value": 1.2, "unit": "s⁻¹"}]}
{"molecule": "B2", "values": [{"measurement": "Km", "setting": "purified protein [5]", "value": "58 (4.5) μM"}, {"measurement": "kcat", "setting": "purified protein [5]", "value": 3.9, "unit": "s⁻¹"}]}
{"molecule": "B3", "values": [{"measurement": "Km", "setting": "purified protein [2]; 100 μM NADPH", "value": "0.81 (0.12) μM"}, {"measurement": "kcat", "setting": "purified protein [2]; 100 μM NADPH", "value": 4, "unit": "s⁻¹"}, {"measurement": "Km", "setting": "purified protein [3]; 100 μM NADPH", "value": "1.6 (0.28) μM"}, {"measurement": "kcat", "setting": "purified protein [3]; 100 μM NADPH", "value": 3.6, "unit": "s⁻¹"}, {"measurement": "Km", "setting": "purified protein [4]; 100 μM NADPH", "value": "2.7 (0.17) μM"}, {"measurement": "kcat", "setting": "purified protein [4]; 100 μM NADPH", "value": 0.66, "unit": "s⁻¹"}]}
{"molecule": "B4", "values": [{"measurement": "Km", "setting": "purified protein [5]", "value": "95 (20) μM"}, {"measurement": "kcat", "setting": "purified protein [5]", "value": 4.9, "unit": "s⁻¹"}]}
{"molecule": "B5", "values": [{"measurement": "Km", "setting": "purified protein [6]", "value": "2.4 (0.50) μM"}, {"measurement": "Km", "setting": "purified protein [7]", "value": "6.8 (1.7) μM"}, {"measurement": "Km", "setting": "purified protein [8]", "value": "7.3 (1.4) μM"}]}
